Assay results: paper PMC4260915, “Colorful Protein-Based Fluorescent Probes for Collagen Imaging” (PLoS ONE, 2014)

B1: mTurquoise2-CNA35 (domain or fragment)
chain: ARDISSTNVTDLTVSPSKIEDGGKTTVKMTFDDKNGKIQNGDMIKVAWPTSGTVKIEGYSKTVPLTVKGEQVGQAVITPDGATITFNDKVEKLSDVSGFAEFEVQGRNLTQTNTSDDKVATITSGNKSTNVTVHKSEAGTSSVFYYKTGDMLPEDTTHVRWFLNINNEKSYVSKDITIKDQIQGGQQLDLSTLNINVTGTHSNYYSGQSAITDFEKAFPGSKITVDNTKNTIDVTIPQGYGSYNSFSINYKTKITNEQQKEFVNNSQAWYQEHGKEEVNGKSFNHTVHNINANAGIEGTVKGELKVLKQDKDTKA
notes: CNA35: domains N1 and N2 of the A-region of Staphylococcus aureus collagen adhesion protein, amino acids 30-344; Order: His-tag, thrombin cleavage site, mTurquoise2, flexible linkage of about 20 amino acids, CNA35; 65.2 kDa; also called FP-CNA35; N-terminal fusion of mTurquoise2 to CNA35; not shown: mTurquoise2, N-terminal, kept
B2: CNA35-LSSmOrange (domain or fragment)
chain: B1 chain
notes: CNA35: domains N1 and N2 of the A-region of Staphylococcus aureus collagen adhesion protein, amino acids 30-344; Order: His-tag, thrombin cleavage site, CNA35, flexible linkage of about 20 amino acids, LSSmOrange; 64.7 kDa; also called CNA35-FP; C-terminal fusion of LSSmOrange to CNA35; not shown: LSSmOrange, C-terminal, kept
B3: CNA35-tdTomato (domain or fragment)
chain: B1 chain
notes: CNA35: domains N1 and N2 of the A-region of Staphylococcus aureus collagen adhesion protein, amino acids 30-344; Order: His-tag, thrombin cleavage site, CNA35, flexible linkage of about 20 amino acids, tdTomato; 93.1 kDa; also called CNA35-FP; C-terminal fusion of tdTomato to CNA35; not shown: tdTomato, C-terminal, kept
B4: CNA35-mCherry (domain or fragment)
chain: B1 chain
notes: CNA35: domains N1 and N2 of the A-region of Staphylococcus aureus collagen adhesion protein, amino acids 30-344; Order: His-tag, thrombin cleavage site, CNA35, flexible linkage of about 20 amino acids, mCherry; 64.7 kDa; also called CNA35-FP; C-terminal fusion of mCherry to CNA35; not shown: mCherry, C-terminal, kept
B5: EGFP-CNA35 (domain or fragment)
chain: B1 chain
notes: CNA35: domains N1 and N2 of the A-region of Staphylococcus aureus collagen adhesion protein, amino acids 30-344; Order: His-tag, thrombin cleavage site, EGFP, flexible linkage of about 20 amino acids, CNA35; 65.0 kDa; also called N-terminal fusion of EGFP to CNA35; not shown: EGFP, N-terminal, kept
B6: mAmetrine-CNA35 (domain or fragment)
chain: B1 chain
notes: CNA35: domains N1 and N2 of the A-region of Staphylococcus aureus collagen adhesion protein, amino acids 30-344; Order: His-tag, thrombin cleavage site, mAmetrine, flexible linkage of about 20 amino acids, CNA35; 64.3 kDa; also called FP-CNA35; N-terminal fusion of mAmetrine to CNA35; not shown: mAmetrine, N-terminal, kept
B7: LSSmOrange-CNA35 (domain or fragment)
chain: B1 chain
notes: CNA35: domains N1 and N2 of the A-region of Staphylococcus aureus collagen adhesion protein, amino acids 30-344; Order: His-tag, thrombin cleavage site, LSSmOrange, flexible linkage of about 20 amino acids, CNA35; 64.6 kDa; also called FP-CNA35; N-terminal fusion of LSSmOrange to CNA35; not shown: LSSmOrange, N-terminal, kept
B8: tdTomato-CNA35 (domain or fragment)
chain: B1 chain
notes: CNA35: domains N1 and N2 of the A-region of Staphylococcus aureus collagen adhesion protein, amino acids 30-344; Order: His-tag, thrombin cleavage site, tdTomato, flexible linkage of about 20 amino acids, CNA35; 92.5 kDa; also called FP-CNA35; N-terminal fusion of tdTomato to CNA35; not shown: tdTomato, N-terminal, kept
B9: mCherry-CNA35 (domain or fragment)
chain: B1 chain
notes: CNA35: domains N1 and N2 of the A-region of Staphylococcus aureus collagen adhesion protein, amino acids 30-344; Order: His-tag, thrombin cleavage site, mCherry, flexible linkage of about 20 amino acids, CNA35; 64.6 kDa; also called FP-CNA35; N-terminal fusion of mCherry to CNA35; not shown: mCherry, N-terminal, kept
B10: CNA35-mTurquoise2 (domain or fragment)
chain: B1 chain
notes: CNA35: domains N1 and N2 of the A-region of Staphylococcus aureus collagen adhesion protein, amino acids 30-344; Order: His-tag, thrombin cleavage site, CNA35, flexible linkage of about 20 amino acids, mTurquoise2; 65.0 kDa; also called CNA35-FP; C-terminal fusion of mTurquoise2 to CNA35; not shown: mTurquoise2, C-terminal, kept
B11: CNA35-EGFP (domain or fragment)
chain: B1 chain
notes: CNA35: domains N1 and N2 of the A-region of Staphylococcus aureus collagen adhesion protein, amino acids 30-344; Order: His-tag, thrombin cleavage site, CNA35, flexible linkage of about 20 amino acids, EGFP; 65.1 kDa; also called CNA35-FP; C-terminal fusion of EGFP to CNA35; not shown: EGFP, C-terminal, kept
B12: CNA35-mAmetrine (domain or fragment)
chain: B1 chain
notes: CNA35: domains N1 and N2 of the A-region of Staphylococcus aureus collagen adhesion protein, amino acids 30-344; Order: His-tag, thrombin cleavage site, CNA35, flexible linkage of about 20 amino acids, mAmetrine; 64.4 kDa; also called CNA35-FP; C-terminal fusion of mAmetrine to CNA35; not shown: mAmetrine, C-terminal, kept

Molecular target: T1, Rat tail collagen type I (rat, UniProt P02454 152-1207; P02466 86-1125)
T1 construct: collagen alpha-1(I) chain, rat; collagen alpha-2(I) chain, rat; Immobilised as a collagen matrix formed on pH neutralisation; source: bought: Sigma-Aldrich, cat. no; C7661
Assay: solid-phase collagen binding assay (fluorescence of bound probe, plate reader); rat tail collagen type I or BSA immobilised in wells of a 96-well plate, blocked with 2% BSA; probe dilutions 0.1–50 µM, 1–1.5 hours at room temperature; 20 mM HEPES pH 7.2, 150 mM NaCl; apparent overall Kd
Conditions: both partners purified

T1 sequence (P02454 152-1207, chain 1 of 2): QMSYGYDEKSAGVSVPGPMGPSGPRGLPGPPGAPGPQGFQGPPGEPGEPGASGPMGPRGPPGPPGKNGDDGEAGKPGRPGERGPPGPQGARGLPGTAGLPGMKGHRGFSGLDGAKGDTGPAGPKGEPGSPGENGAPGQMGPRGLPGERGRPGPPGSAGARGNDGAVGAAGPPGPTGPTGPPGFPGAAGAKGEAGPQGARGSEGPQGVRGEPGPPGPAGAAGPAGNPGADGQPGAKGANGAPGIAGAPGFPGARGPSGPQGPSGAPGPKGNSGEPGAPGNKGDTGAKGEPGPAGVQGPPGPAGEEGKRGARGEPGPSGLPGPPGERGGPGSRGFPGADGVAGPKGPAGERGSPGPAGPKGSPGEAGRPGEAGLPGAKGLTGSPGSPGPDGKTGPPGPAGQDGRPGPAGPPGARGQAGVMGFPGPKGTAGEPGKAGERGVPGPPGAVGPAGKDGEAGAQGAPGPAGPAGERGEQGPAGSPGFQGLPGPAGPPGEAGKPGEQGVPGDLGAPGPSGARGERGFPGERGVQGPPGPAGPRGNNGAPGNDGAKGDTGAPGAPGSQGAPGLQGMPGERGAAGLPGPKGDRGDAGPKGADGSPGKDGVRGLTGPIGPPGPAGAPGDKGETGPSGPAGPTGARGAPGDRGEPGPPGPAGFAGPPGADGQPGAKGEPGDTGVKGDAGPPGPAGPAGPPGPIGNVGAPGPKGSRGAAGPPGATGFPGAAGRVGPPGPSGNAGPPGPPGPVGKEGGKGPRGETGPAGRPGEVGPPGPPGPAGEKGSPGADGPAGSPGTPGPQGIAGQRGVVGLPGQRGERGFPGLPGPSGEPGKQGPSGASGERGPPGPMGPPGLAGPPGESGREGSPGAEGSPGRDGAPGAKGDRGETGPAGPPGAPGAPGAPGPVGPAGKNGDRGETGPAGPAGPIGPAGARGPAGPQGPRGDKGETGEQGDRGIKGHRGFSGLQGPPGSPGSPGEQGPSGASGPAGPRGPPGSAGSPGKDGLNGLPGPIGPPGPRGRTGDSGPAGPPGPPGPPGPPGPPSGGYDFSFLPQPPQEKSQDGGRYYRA
T1 sequence (P02466 86-1125, chain 2 of 2): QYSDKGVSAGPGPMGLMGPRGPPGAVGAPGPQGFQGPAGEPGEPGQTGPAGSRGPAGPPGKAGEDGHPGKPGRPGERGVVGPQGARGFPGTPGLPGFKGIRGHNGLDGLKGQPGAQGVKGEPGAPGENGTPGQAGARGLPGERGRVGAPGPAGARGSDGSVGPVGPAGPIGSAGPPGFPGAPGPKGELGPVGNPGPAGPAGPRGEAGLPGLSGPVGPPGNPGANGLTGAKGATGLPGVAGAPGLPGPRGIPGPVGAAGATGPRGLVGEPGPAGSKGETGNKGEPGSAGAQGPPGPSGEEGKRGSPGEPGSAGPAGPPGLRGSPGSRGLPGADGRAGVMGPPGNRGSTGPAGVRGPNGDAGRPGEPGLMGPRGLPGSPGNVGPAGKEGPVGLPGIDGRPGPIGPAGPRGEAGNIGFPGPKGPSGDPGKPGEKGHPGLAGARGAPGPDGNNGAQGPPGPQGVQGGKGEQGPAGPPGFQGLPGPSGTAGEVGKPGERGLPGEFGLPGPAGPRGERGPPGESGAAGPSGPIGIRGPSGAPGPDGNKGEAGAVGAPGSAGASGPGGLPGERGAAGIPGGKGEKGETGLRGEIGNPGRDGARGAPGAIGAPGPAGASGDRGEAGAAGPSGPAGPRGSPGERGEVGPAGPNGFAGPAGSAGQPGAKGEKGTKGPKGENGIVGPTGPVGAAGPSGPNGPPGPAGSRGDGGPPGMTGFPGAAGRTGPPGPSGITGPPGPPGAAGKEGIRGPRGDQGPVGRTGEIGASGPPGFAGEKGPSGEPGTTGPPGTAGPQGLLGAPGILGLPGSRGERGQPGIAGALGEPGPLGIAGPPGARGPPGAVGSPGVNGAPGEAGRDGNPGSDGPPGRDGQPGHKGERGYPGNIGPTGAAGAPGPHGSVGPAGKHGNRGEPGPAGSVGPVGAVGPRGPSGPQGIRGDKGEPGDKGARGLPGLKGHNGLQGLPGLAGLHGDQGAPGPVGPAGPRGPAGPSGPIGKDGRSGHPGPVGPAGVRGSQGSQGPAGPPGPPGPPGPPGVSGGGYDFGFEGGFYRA

Binder	Kd
B1	~1000 nM
B2	~1000 nM
B3	~1000 nM
B4	~1000 nM
B5	~1000 nM
B6	~1000 nM
B7	~1000 nM
B8	~1000 nM
B9	~1000 nM
B10	~1000 nM
B11	~1000 nM
B12	~1000 nM
